Measurements as given in doi:10.1101/2023.05.26.542392.

Molecular target: R203M mutant of full-length SARS-CoV-2 nucleocapsid (R203M-FLN) (SARS-CoV-2)
Assay: AUC

Substance “R203M mutant of full-length SARS-CoV-2 nucleocapsid (R203M-FLN) (natural protein)” has a stoichiometry N of 2.
